From the DeepSol protein solubility set

Test: soluble on expression in E. coli; label from the status in PepcDB or PDB records

Soluble on expression in E. coli, not soluble:
MGSDKIHHHHHHMQNTSYIALSRQAALWRQMEVVANNMANANTPAFKGEEMMFREFLVPTRSSERAIGGKLAFVQDVGVLRDTREGPLTKTDNPLDFALHGDGYFQIETEAGMRYARNGHFRLDQTGMLVNSQGYAVMDDRDQPIVFAPNETRVEVASDGTVSTENGRVARMKVVKFENDQLLRKAGDSLFETTQDPEAVQSPNVAQGMMEESNVQPVLEMTRMTQILREYQGVQKMLDAEHERQLKAIQTLGSSKTN, MGSDKIHHHHHHMQPFSSYTVREVIKGGNSMELRSFGNTDIQVSPLGFGAGHIGSDDLSDQEASYILHQALDTGIRLFDTARGYGLSEKRLGQFLKQRRHDVVLSTKVGYDVPRTEDWTFQAVAGGIDQALLTMQTDFIDIVHLHSCSKEILAQDDVIEALERAKQAGKVRLIAYSGDREDLDYAITTGRFDSFQTSVNLYDQRALMDSVPLIHQQQKGIIAKRPIANAPWRFASRPVGQYVEPYWERAQQLDFPLEEASWLETALRFTVFEPGVTSAIIGTANPEHLVQNIRLLEKGALPAERVADLKRRFQEQDENWLQQT, MGSDKIHHHHHHMQPSNSWVCLSALEKQVVAATASLDNRGLAYADGFFTTMGVINGQILWAEYHHQRLISHAKALQLDLDSWSLLSTLQVHAQQHRQGMLKLIITRAAQDIRGYGYTPSECGSACESWLKSLAMTVSTAEQLSLNDECSIPVQPVSTAVCLSSQIACLPPSIAGLKTLNRLDNVLASAELQGIKTRVLASNGEGDISEGLLRDMTGRWVEGTMSNVFYQLSDSRLVDSPSSEMINIPNNKSNTNYLTQGQWYTPSMAQSGVAGVMRQVIIDELSTTKYPVVVRSLQDKDLPQLQQLFFCNALRGIMPMASLTLLSGEMVGF, MGSDKIHHHHHHMQRRVPLSPDAAHCSSCMLGHVCVPVGMPANEVEKLDELVKERVRVERGKSLYELDDPLDAVYGVRYGSLKTQLEDSSGQLQITGFHLPGEIVGLDGMIESKHVSSAVALEDSEVCVIRLPEIDRVSTQLPSLQQQFRRLMSREITRSHQMLATVGAMRSEQRLAAFLLNLSQRYAALGYSSTEFVLRMSREEIGNYLGLTLETVSRLFSRFGREGLIRINQREVRLIDLPGLKQLIGQESC, MGSDKIHHHHHHMQTLKRGFAVAALLFSPLTMAQDINAQLTTWFSQRLAGFSDEVVVTLRSSPNLLPSCEQPAFSMTGSAKLWGNVNVVARCANEKRYLQVNVQATGNYVAVAAPIARGGKLTPANVTLKRGRLDQLPPRTVLDIRQIQDAVSLRDLAPGQPVQLTMIRQAWRVKAGQRVQVIANGEGFSVNAEGQAMNNAAVAQNARVRMTSGQIVSGTVDSDGNILINL, MGSDKIHHHHHHMRDIHILHDLIKKQCPQIHQKRLNSLMVATESLLDGNQLSLTQLGRNITGSVAAKHNIKRIDRLLGNYHLAQDKITIYQWHARYLCGANPMPIILVDWSDVREQLRIMTLRASISVQGRSVTLYERTFLFEDYNAPRSHNAFLAELANVLPQGCCPLIVTDAGYRNTWFREVERYGWFWLGRVRGDVSFMHHGQTTWHSNKSLYSKANSTAKYIGNVQLARKSPLSCHLHLF, MGSDKIHHHHHHMREAVMCRFVAYLGRPTLLENVLVRPKNSIIMQSLHARETKYRTNGDGFGLGWYSPEVSSDPALFTSVYPAWNDRNLLHLTAKIQSPCFFAHVRSASAGGVTNYNCHPFIYGDWMLMHNGEINDFIDVKRHIRHLLDDDIYHWVKGQTDSEHLFGLFLQLAKGRDITQLSVAADVLQETINKILEVIGQFGHSGPSYFNICLTNGKKIIATRYCSHEKKKPLTLHYLIGYVLSTQGLWIKEEGNPAYVVVSSERLNDLDEGWEDVPPQHMILIDENKNIQLRPLQTLG, MGSDKIHHHHHHMRENSDVLANSGFRQSVEVQIKDKQSYKRLNMTLVGQQHPDYLILELSRQYCWQDILPMLATEKNVAIKTVSPKGEQVTGVVDILHITQYPQKLLFVSYPRNASVEILRSSPRVGVNCDARLQLQLKDKLGEPLTGKIVDISNKGIAFNYFGTSPVNIEDSRGLEAEVRVKTDDETILLQQLITRSIRSVGPQLWQLGLSYKEKPNNLQDLVSKLFLHSTPVRELLSDNDPGWDASDNTLQGESESVQFSTN, MGSDKIHHHHHHMRFMFLHPRLSLEGDPLGLMQLSASLKQRGHIVGLTLLTEDYIEAIRSFQPDMLGVSLMSSDAVMMHQVLNKVRMVFPDLFIIVGGPHPTFDPSCLMVLPVNAICVGEGDEALVEALEQYGREGHVEGIRNVGTVTTPVTLRPLVSDLDDLPFIDRDIVYAKNHIVRDFPLKTFAASRGCHFKCTYCFNHAYNAMYAGLGHVVRRRSVDHLIAEMRDVIARYPTSYIKISDDSFTYRVDSWLEEFAEKYPRLIGLPFYCLLRADVVTRDMVRLLREAGCRSVCMSIEAGAETVRRDVLNRRVSNEKIIESFDLFNEAGIAIYTNSMLAMPRATLADDIATLDLNIRCRPTLGHFTIMAPFPGTRIHDMCEKDGILPERCGGDGDIPTSTGELSKLTTYTDEEKNIQKNIVLLGPLVIRFPVLRGVFLRCLAKLPSNNILFKCIYTVTKNLLFKRIVPVRMSPLLMLRIAIAQVKAARTQVG, MGSDKIHHHHHHMRFPEFSGEWKKYFIRDIAEVTKGAGISKEQRSLFGTPCILYGELYTTYKSEVINDVQSKTDIDAKNLVRSKENDVIIPSSGETAIDISTARCVPYDDVLLGGDLNIIRLYQNDGRFLSYQLNGVRKLDIARVAQGSSVIHLYGESIKSLSVSLPALKEQQKIVSLLSLIDERIATQNKIIEEYKKLKNALAELFFAKSIEYTSIGEMCDVVMGQSPSSVAYNYTKNGLPLIQGNLDIFEGVTSPRMWTSDITKQCDIGDIILTVRAPVGDVAKSNMIACVGRGVCAIKVKESGCSEYVYQYLLYFKAKWGSIEQGSTFSAISRNDILNINIPVITKRLIVASHLLALFDSEISIEALNLNVYTKQKQYLLTKMFI, MGSDKIHHHHHHMRGDMLKRELQAYAKEIGIDEFRVTTADPFLVMKQRLMEQQEKGYASGFEEPDLERRTTPALLLEDAVSIIAIAVAYPSKLKDAPRGKEGERRGIFGRSSWGLDYHQALKQRLTLLEEKIQELSPGARSRSMVDTGELVDRAVAERAGIGFSGKNCSIISEEHGSYLYLGELITDQYLPPDESVEELCGSCNKCLDACPTDALIEPGVIDAKRCISFITQTKTLIPEHFRYALGNRLYGCDTCQQVCPYNRKKNATQHSELQPDPEQVKPLLIPLLSLSNREFKSRFGSLSGAWRGKKPIQRNAVCALVHYQDRTALDALRLMAETDQREDMRALAIWAVGRIAGQEAEDYIQKRLLTDSAEDVQVEGNRLLEEWGNGHAI, MGSDKIHHHHHHMRGEKNELLSWINNFVEVNNKAIDNSFEKFKSEPSNQYNLPFKNVSWYTLRKTLADNVEESKKARGCLYAVLDYNESELKELGLILNSNLHSIKKIANKIMQNAGIEFQFRFEAIMRLLLDKKNNLMLLNIPDLKRIKICLENFLSLRTTFRELVKQLLNDYNSNKESIKSENIKLGDYLNKAFSDIVLSMDKNPINLEKEIRNIIVI, MGSDKIHHHHHHMRGYFRADWTERVELSEHDIGELRFSLKNRLGEALLLTSQEDMLRYCRDWHGDVTSSAVAVIRPRSTKEVSDTVIACAELGLAIIPQGGNTGLVLGGIPDAPKHQVVLSLERMNAIRTIDSDDFSAVVEAGCILSEFKDAVQDKGMFFPLSLGAQGSCRIGGNVSTNAGGINVLRYGMTRELVLGLEVVLPDGTIWNGLSTLRKDNRGIDLKQLFIGAEGTLGIITAVAVKLYPNPEHVETALLGLNSLDDAIKLYRRARRECCDLMSAFEFMPPVAFTLAIEAIPDLKMPIAGDYPAYVLMEISGSGLVDTADLMGRFLEGVMEDGLVLDGVIASSRAQAQSLWLFREGMNEGQALRGSHMRTDISVPLSKLAAFVAEAEAELAEKLPECLAVSYGHVGDGNVHLNVLPPNGATLEEREAFIYKSKTLVNEVLDRYVGSISAEHGIGRLKRSDFESRLSDVQRRMITGLKNAFDPDLRMNPGCQITLQPDS, MGSDKIHHHHHHMRIGCVLARKGKMMMNGELAGFTIPRLGMGTMALAIEGRPDRDTAIRTIHAGLDAGVRYLDTAWSYYLPSEPGTGTAKDLGYGEKLVRDALASWNGPRDEVLVATKTGYRRTMEIPAFVAPVSDSPESDTQGRDSEGCSRRPGGERQHLQAAGSQYGWMADSRPETMIRDAKESALHLGVDTLDLLYSHGPDPEVAYEDQVGALKQLLNEGVIRYAGISRVDNAQIDIAREILGDKLIAVQNQFSPSHPDPEHTMEHCAELGLAFVCWSPLGGFLDAFDQRAYDPFRTVAGNHGCSYQRVVLAWELSRYERLFTIPSARNPQEINDSFAATELTLTQDELAMLNASVDARRG, MGSDKIHHHHHHMRIGVIGLGRIGTIHAENLKMIDDAILYAISDVREDRLREMKEKLGVEKAYKDPHELIEDPNVDAVLVCSSTNTHSELVIACAKAKKHVFCEKPLSLNLADVDRMIEETKKADVILFTGFNRRFDRNFKKLKEAVENGTIGKPHVLRITSRDPAPPPLDYIRVSGGIFLDMTIHDFDMARYIMGEEVEEVFADGSVLVDEEIGKAGDVDTAVVVLRFKSGALGVIDNSRRAVYGYDQRIEVFGSKGRIFADNVRETTVVLTDEQGDRGSRYLYFFLERYRDSYLEELKTFIKNVKSGEPPAVSGEDGKMALLLGYAAKKSLEEKRSVKLEEVIG, MGSDKIHHHHHHMRKDVLEGVLLHIMNEIHPNFAALAKQYNCDYRTVKRYYEAGLTGDLDKLRERKPSVPPLLHGFEEIIRDKLELNCSAASIFYFLGKKDYKGSYTTIKRYCRKYREEKVQKATIRIETTPGLSAQVDWKENVKMVSRDGEVFYFNIFLYILGYSRMKYLELTFDRTQPTVFQCLVNAFEYCGNGIPQEIWFDNMKTVVDRSKSQFTQTVFNEKFRQFAKDAGFHPIACRPFRPQTKGKVEALARTVERLMVFNYEFTDVQELKQIIYELMQDLNGSVSQAIHNKPTVLLKEELPILAPIHRLELLSYVSRNKRLLRKVSMESMVQYQNAKYSVPVKYIGKEVTLDIRRDNLFVWYGDKCIRTHPISEKALNYQREDSLEILRSDVFKYLEDEELERFVDDNLHAYDDL, MGSDKIHHHHHHMRLSELKDAGRSPTLPLSITLVDAAGSADLQLLTLLRVLPGQRYVGAGVWRGTPVLAKLLVGGNAARHFQRELQGVKLLAEQGLTTPTLLADGLKEGEGGWLLFEFLDGAQSLADAWAAVENLPVLADEQHLVLGEALTAVAHMHAQGLWQEDLHLDNLLRHAGKLYLIDGAGIRAETPGQQLSRPRVLENLGVFFAQLPKRLEPFIEELLVHYLLANAEHALPLEALQKQVDKVRNWRQKDYLDKAGRECSLFSVQRTLSGLQAIRRSEVEAMQPVLEQADALIDKGHLYKTGGAASVARIEVNGRQLVIKRYNIKNTAHWFKRFWRPSRAWHSWIEGHRLEFLDIATPRPLAVLEQRVLGLRSRAYLVTEYVDGPDLTACFAPHVESGDAPEEQVDALVHVMQQLIRERISHGDFKGHNLFWHNGQWSLIDLDAMCQHATQLSFAPAYARDRARLLRNWPTGSALHQRLDRLLPKLVD, MGSDKIHHHHHHMRNQILKKATVSIMLLLCINVSVADTSTSVSCAESGSASAYSRSGNSVSYSSVNCSSNNEQNAMTPAGIAVSKSYSPEPYTSLVLSGAFNTEIKTSSENRVIISGDSNYVESVEVNSSDGELIIRRPGPGNDNLNVIVESISLQKLKISGAGSTNIYGDFPDGLSVRKSGAGSINIEGQASTLKLNLSGAGNTTARDFTVDNVEIDATGAGNIAVCAKKSVAGSLAGAVHFKVYCNPSQRSVNTRGVSRVSYR
